Data reported in US20060140889A1.
Where a chain is given by its changes, count along the chain named.

What was measured:
[1] = biological target: skin proteins; experiment: ELISA on coated skin proteins, blocking 0.5% BSA, iMab (OD280 0.399) diluted 100 x, anti-VSV-HRP; background without iMab 0.187
[2] = biological target: skin proteins; experiment: ELISA on coated skin proteins, blocking Seablock, iMab (OD280 0.399) diluted 100 x, anti-VSV-HRP; background without iMab 0.084
[3] = biological target: hair proteins; experiment: ELISA on coated hair proteins, blocking 0.5% BSA, iMab (OD280 3.19) diluted 100 x, anti-VSV-HRP; background without iMab 0.095
[4] = biological target: skin proteins; experiment: ELISA on coated skin proteins, blocking 0.5% BSA, iMab (OD280 0.828) diluted 250 x, anti-VSV-HRP; background without iMab 0.484
[5] = biological target: skin proteins; experiment: ELISA on coated skin proteins, blocking Seablock, iMab (OD280 0.828) diluted 250 x, anti-VSV-HRP; background without iMab 0.131
[6] = biological target: hair proteins; experiment: ELISA on coated hair proteins, blocking 0.5% BSA, iMab (OD280 1.09) diluted 100 x, anti-VSV-HRP; background without iMab 0.095
[7] = biological target: skin proteins; experiment: ELISA on coated skin proteins, blocking Seablock, iMab (OD280 0.323) diluted 100 x, anti-VSV-HRP; background without iMab 0.131
[8] = biological target: skin proteins; experiment: ELISA on coated skin proteins, blocking 0.5% BSA, iMab (OD280 0.323) diluted 100 x, anti-VSV-HRP; background without iMab 0.484
[9] = biological target: hair proteins; experiment: ELISA on coated hair proteins, blocking 0.5% BSA, iMab (OD280 4.22) diluted 100 x, anti-VSV-HRP; background without iMab 0.095
[10] = biological target: ELK (3% skim milk powder solution); experiment: ELISA, control well with ELK only, ~50 ng iMab per well, anti-VSV-HRP; urea purification
[11] = biological target: bovine serum albumin (bovine) (UniProt P02769); experiment: gel-shift, 2 mg/ml conjugate with 10 mg/ml BSA, 7.5% native PAA gel; Rf of the conjugate alone 0.66
[12] = biological target: bovine serum albumin (bovine) (UniProt P02769); experiment: gel-shift, 0.1 mg/ml conjugate with 10 mg/ml BSA, 7.5% native PAA gel, in situ peroxidase activity; Rf of the conjugate alone 0.31
[13] = biological target: hair proteins; experiment: ELISA on coated hair proteins, blocking 0.5% BSA, iMab (OD280 1.71) diluted 100 x, anti-VSV-HRP; background without iMab 0.095
[14] = biological target: skin proteins; experiment: ELISA on coated skin proteins, blocking 0.5% BSA, iMab (OD280 0.357) diluted 100 x, anti-VSV-HRP; background without iMab 0.484
[15] = biological target: skin proteins; experiment: ELISA on coated skin proteins, blocking Seablock, iMab (OD280 0.357) diluted 100 x, anti-VSV-HRP; background without iMab 0.131
[16] = biological target: hair proteins; experiment: ELISA on coated hair proteins, blocking 0.5% BSA, iMab (OD280 2.36) diluted 100 x, anti-VSV-HRP; background without iMab 0.095
[17] = biological target: chicken lysozyme (chicken), P00698; experiment: ELISA versus lysozyme, iMab dilution 1:100, before pH shock; details: remark: other sources report otherwise
[18] = biological target: chicken lysozyme (chicken), P00698; experiment: ELISA versus lysozyme, iMab dilution 1:10,000, before pH shock; details: remark: other sources report otherwise
[19] = biological target: chicken lysozyme (chicken), P00698; experiment: ELISA, well coated with lysozyme (100 ug/ml) and blocked with ELK, ~50 ng iMab per well, anti-VSV-HRP; urea purification; details: remark: other sources report otherwise
[20] = biological target: chicken lysozyme (chicken), P00698; experiment: ELISA versus lysozyme, iMab dilution 1:1000, before pH shock; details: remark: other sources report otherwise
[21] = biological target: chicken lysozyme (chicken), P00698; experiment: ELISA versus lysozyme, iMab dilution 1:10, after precipitation with potassium acetate pH 4.8 and redissolving in PBS pH 7.5; details: remark: other sources report otherwise
[22] = biological target: chicken lysozyme (chicken), P00698; experiment: ELISA versus lysozyme, iMab dilution 1:10, before pH shock; details: remark: other sources report otherwise
[23] = biological target: chicken lysozyme (chicken), P00698; experiment: ELISA versus lysozyme, iMab dilution 1:1000, after precipitation with potassium acetate pH 4.8 and redissolving in PBS pH 7.5; details: remark: other sources report otherwise
[24] = biological target: chicken lysozyme (chicken), P00698; experiment: ELISA versus lysozyme, iMab dilution 1:100, after precipitation with potassium acetate pH 4.8 and redissolving in PBS pH 7.5; details: remark: other sources report otherwise
[25] = biological target: chicken lysozyme (chicken), P00698; experiment: ELISA, well coated with lysozyme (100 ug/ml) and blocked with ELK, ~50 ng iMab per well, anti-VSV-HRP; purification by heat (60 C); details: remark: other sources report otherwise
[26] = biological target: ELK (3% skim milk powder solution); experiment: ELISA, control well with ELK only, ~50 ng iMab per well, anti-VSV-HRP; purification by heat (60 C)
[27] = biological target: chicken lysozyme (chicken), P00698; experiment: ELISA versus lysozyme, iMab dilution 1:10,000, after precipitation with potassium acetate pH 4.8 and redissolving in PBS pH 7.5; details: remark: other sources report otherwise
[28] = biological target: skin proteins; experiment: ELISA on coated skin proteins, blocking Seablock, iMab (OD280 0.585) diluted 200 x, anti-VSV-HRP; background without iMab 0.131
[29] = biological target: skin proteins; experiment: ELISA on coated skin proteins, blocking 0.5% BSA, iMab (OD280 0.585) diluted 200 x, anti-VSV-HRP; background without iMab 0.484
[30] = biological target: hair proteins; experiment: ELISA on coated hair proteins, blocking 0.5% BSA, iMab (OD280 3.60) diluted 100 x, anti-VSV-HRP; background without iMab 0.095
[31] = biological target: skin proteins; experiment: ELISA on coated skin proteins, blocking 0.5% BSA, iMab (OD280 0.711) diluted 200 x, anti-VSV-HRP; background without iMab 0.484
[32] = biological target: skin proteins; experiment: ELISA on coated skin proteins, blocking Seablock, iMab (OD280 0.711) diluted 200 x, anti-VSV-HRP; background without iMab 0.131
[33] = biological target: skin proteins; experiment: ELISA on coated skin proteins, blocking 0.5% BSA, iMab (OD280 0.327) diluted 100 x, anti-VSV-HRP; background without iMab 0.484
[34] = biological target: hair proteins; experiment: ELISA on coated hair proteins, blocking 0.5% BSA, iMab (OD280 2.82) diluted 100 x, anti-VSV-HRP; background without iMab 0.095
[35] = biological target: skin proteins; experiment: ELISA on coated skin proteins, blocking Seablock, iMab (OD280 0.327) diluted 100 x, anti-VSV-HRP; background without iMab 0.131

Sequence of chicken lysozyme (chicken), P00698 (P00698 19-147 limits assumed): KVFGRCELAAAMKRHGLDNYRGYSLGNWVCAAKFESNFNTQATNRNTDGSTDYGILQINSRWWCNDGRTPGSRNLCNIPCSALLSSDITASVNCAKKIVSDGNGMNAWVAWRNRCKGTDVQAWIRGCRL
Sequence of bovine serum albumin (bovine) (P02769 25-607 limits assumed): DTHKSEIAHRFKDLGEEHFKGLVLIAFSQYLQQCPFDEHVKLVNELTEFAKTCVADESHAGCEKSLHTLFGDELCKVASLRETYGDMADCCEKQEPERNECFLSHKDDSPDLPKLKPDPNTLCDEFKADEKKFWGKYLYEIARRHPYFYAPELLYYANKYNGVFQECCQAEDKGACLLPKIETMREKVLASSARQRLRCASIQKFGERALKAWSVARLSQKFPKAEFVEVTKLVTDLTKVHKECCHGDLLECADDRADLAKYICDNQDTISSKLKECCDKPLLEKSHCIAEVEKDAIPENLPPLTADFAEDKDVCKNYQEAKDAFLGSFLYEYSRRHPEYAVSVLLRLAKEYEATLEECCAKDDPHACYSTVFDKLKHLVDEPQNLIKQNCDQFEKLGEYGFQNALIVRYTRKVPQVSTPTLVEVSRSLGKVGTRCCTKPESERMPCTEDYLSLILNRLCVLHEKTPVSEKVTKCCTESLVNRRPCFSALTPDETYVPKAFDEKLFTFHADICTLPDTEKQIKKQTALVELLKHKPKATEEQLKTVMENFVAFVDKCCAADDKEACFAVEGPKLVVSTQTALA

B1: iMab142-xx-0032 (designed binder)
chain: MNVKLVEKGGNFVENDDDLKLTCRAEGYTIGPYSMGWFRQAPNDDSTNVSCINMGGGITYYGDSVKERFDIRRDNASNTVTLSMDDLQPEDSAEYNCAATLAPFSIATMYGGLLDTAFDSRGQGTDVTVSS
- OD450 in Elisa [1]: 0.306 OD450
- OD450 in Elisa [2]: 0.088 OD450

B2: iMab143-xx-0033 (designed binder)
chain: MIKVYTDRENYGAVGSQVTLHCSASGYTIGPISFTWRYQPEGDRDAISIFHYNMGDGSIVIHNLDYSDNGSFTCAADLHGLGLRRISTYEYGNSSQVTLYVFE
- OD450 in Elisa [3]: 0.442 OD450
- OD450 in Elisa [4]: 1.66 OD450
- OD450 in Elisa [5]: 0.29 OD450

B3: iMab142-xx-0038 (designed binder)
chain: NVKLVEKGGNFVENDDDLKLTCRAEGYTIGPYSMGWFRQAPNDDSTNVSCINMGGGITYYGDSVKERFDIRRDNASNTVTLSMDDLQPEDSAEYNCATTLAPFGIATMYGPLNPAAFESRGQGTDVTVSS
- OD450 in Elisa [6]: 2.35 OD450

B4: iMab143-xx-0030 (designed binder)
chain: MIKVYTDRENYGAVGSQVTLHCSASGYTIGPISFTWRYQPEGDRDAISIFHYNMGDGSIVIHNLDYSDNGSFTCAAVFAVVTVATKPDPRFYDYGNSSQVTLYVFEA
- OD450 in Elisa [7]: 0.56 OD450
- OD450 in Elisa [8]: 2.02 OD450
- OD450 in Elisa [9]: 0.262 OD450

B5: iMab122 (designed binder, not shown: small tags and cut ends)
chain: NVKLVEKGGNFVENDDDLKLTCRASGRTFSSRTMGWFRQAPNDDSTNVATIRWNGGSTYYTNYGDSVKERFDIRVDQASNTVTLSMDDLQPEDSAEYNCAGTDIGDGWSGRYDYRGQGTDVTVSS
- Absorbtion (450 nm) (absorbance at 450 nm) [10]: 0.051

B6: TRITC labeled iMab142-xx-0002 (designed binder, not shown: small tags and cut ends)
chain: MNVKLVEKGGNFVENDDDLKLTCRAEGYTIGPYSMGWFRQAPNDDSTNVSCINMGGGITYYGDSVKERFDIRRDNASNTVTLSMDDLQPEDSAVYNCAADWWDGFTYGSTWYNPSSYDYRGQGTDVTVSS
modifications: TRITC covalently on primary amines, meaning the N-terminus and Lys side chains. Positions and number are not stated; labelled Lys is written K.
- retardation factor (Rf) [11]: 0.66

B7: iMab142-xx-0002-HRP conjugate (protein, not shown: small tags and cut ends)
chain: B6 chain
modifications: Amines (N-terminus and Lys) were thiolated with SATA, deacetylated, and coupled by thioether to maleimide-activated horseradish peroxidase. The sites and the iMab:HRP ratio of the product are not stated.
- retardation factor (Rf) [12]: 0.31

B8: iMab143-xx-0034 (designed binder)
chain: MIKVYTDRENYGAVGSQVTLHCSASGYTIGPISFTWRYQPEGDRDAISIFHYNMGDGSIVIHNLDYSDNGSFTCAAYRIRSGGYYCFLTYLMDYGNSSQVTLYVFE
- OD450 in Elisa [13]: 0.736 OD450
- OD450 in Elisa [14]: 2.23 OD450
- OD450 in Elisa [15]: 0.699 OD450

B9: iMab142-xx-0039 (designed binder)
chain: NVKLVEKGGNFVENDDDLKLTCRAEGYTIGPYSMGWFRQAPNDDSTNVSCINMGGGITYYGDSVKERFDIRRDNASNTVTLSMDDLQPEDSAEYNCAADYGRCSWLIRAYNYRGQGTDVTVSS
- OD450 in Elisa [16]: 1.32 OD450

B10: iMab111 (designed binder)
chain: NVKLVCKGGNFVENDDDLKLTCRAEGYTIGPYCMGWFRQAPNDDSTNVATINMGGGITYYGDSVKERFDIRRDNASNTVTLSMDDLQPEDSAEYNCAGDSTIYASYYECGHGLSTGGYGYDSHYRCQGTDVTVSS
- Absorbtion (450 nm) (absorbance at 450 nm) [10]: 0.043

B11: iMab100 (designed binder, not shown: small tags and cut ends)
chain: B10 chain with C6E, C126G
- Signal on Elisa [17]: 0.228
- Signal on Elisa [18]: 0.059
- Absorbtion (450 nm) (absorbance at 450 nm) [10]: 0.04
- Absorbtion (450 nm) (absorbance at 450 nm) [19]: 0.494
- Signal on Elisa [20]: 0.128
- Signal on Elisa [21]: 0.39
- Signal on Elisa [22]: 0.36
- Signal on Elisa [23]: 0.169
- Signal on Elisa [24]: 0.263
- Absorbtion (450 nm) (absorbance at 450 nm) [25]: 0.369
- Absorbtion (450 nm) (absorbance at 450 nm) [26]: 0.041
- Signal on Elisa [27]: 0.059

B12: iMab116 (designed binder, not shown: small tags and cut ends)
chain: B10 chain with C6E, C96G, A104G, C126G
- Absorbtion (450 nm) (absorbance at 450 nm) [10]: 0.042

B13: iMab143-xx-0029 (designed binder)
chain: MIKVYTDRENYGAVGSQVTLHCSASGYTIGPISFTWRYQPEGDRDAISIFHYNMGDGSIVIHNLDYSDNGSFTCAARFVDALYEPKSCTSRNYAYGNSSQVTLYVFE
- OD450 in Elisa [28]: 0.212 OD450
- OD450 in Elisa [29]: 1.88 OD450
- OD450 in Elisa [30]: 0.203 OD450

B14: iMab143-xx-0035 (designed binder)
chain: MIKVYTDRENYGAVGSQVTLHCSASGYTIGPISFTWRYQPEGDRDAISIFHYNMGDGSIVIHNLDYSDNGSFTCAAGADCSDYGIMYGMDYGNSSQVTLYVFE
- OD450 in Elisa [31]: 0.824 OD450
- OD450 in Elisa [32]: 1.79 OD450

B15: iMab143-xx-0031 (designed binder)
chain: MIKVYTDRENYGAVGSQVTLHCSASGYTIGPISFTWRYQPEGDRDAISIFHYNMGDGSIVIHNLDYSDNGSFTCAATTPFIDYDPNDICPSWYEYDYGNSSQVTLYVFE
- OD450 in Elisa [33]: 2.62 OD450
- OD450 in Elisa [34]: 1.05 OD450
- OD450 in Elisa [35]: 2.88 OD450
